Laboratory results reported in paper doi:10.1101/671792.

Target: polymerization-deficient p62 PB1 domain D69A/D73A (human) (UniProt Q13501)
Test: ITC

Kd: 26.8 nM
B1: MEKK3 PB1 domain, residues 43-127 (ITC) (domain or fragment)
chain: SDVRIKFEHNGERRIIAFSRPVKYEDVEHKVTTVFGQPLDLHYMNNELSILLKNQDDLDKAIDILDRSSSMKSLRILLLSQDRNH
